Here are results for one protein from paper PMC5180188, “Structural Insights on PHA Binding Protein PhaP from Aeromonas hydrophila” (Scientific Reports, 2016).

The data set deals with the molecule itself. As to the kind of experiment: SEC + other: dynamic light scattering; Superdex 200 in 50 mM Tris pH 8.0, 500 mM NaCl; DLS at 0.5 mg/ml in aqueous buffer.

B1: PhaPAh (PHA binding protein PhaP, a phasin, from Aeromonas hydrophila strain 4AK4) (natural protein, UniProt O32470 1-116, looked up)
chain: MNMDVIKSFTEQMQGFAAPLTRYNQLLASNIEQLTRLQLASANAYAELGLNQLQAVSKVQDTQSLAALGTVQLETASQLSRQMLDDIQKLSALGQQFKEELDVLTADGIKKSTGKA
notes: PhaP (phasin) of Aeromonas hydrophila strain 4AK4, UniProtKB O32470, residues 1-116; called full-length in the methods; Cloned in pGEX-6P-1; residues left by PreScission cleavage are not described; Phasing used a (Ta6Br12)2+ soaked crystal and a selenomethionine-labelled crystal; the final model is of the native crystal; also called wild type; wild-type PhaPAh; not shown: GST, N-terminal, cleaved
With B1, the “stoichiometry N” value came to 4.
